Experiments:
[1] = test system: relapsed and refractory multiple myeloma; experiment: DARZALEX monotherapy safety, three open-label clinical trials (N=156); format: in vivo, human
Source text: Serious adverse reactions were reported in 51 (33%) patients.
Table 23 describes Grade 3-4 laboratory abnormalities reported at a rate of ≥10%.

[2] = test system: relapsed or refractory multiple myeloma; experiment: SIRIUS (NCT01985126) open-label DARZALEX monotherapy trial; format: in vivo, human
Source text: (§1) Treatment continued until unacceptable toxicity or disease progression.
The median patient age was 63.5 years (range: 31 to 84 years), 49% were male and 79% were Caucasian. Patients had received a median of 5 prior lines of therapy. […] Prior therapies included bortezomib (99%), lenalidomide (99%), pomalidomide (63%) and carfilzomib (50%).

[3] = test system: relapsed or refractory multiple myeloma; experiment: GEN501 (NCT00574288) open-label dose escalation monotherapy trial; format: in vivo, human
Source text: as §1
Seventy-four percent of patients had received prior ASCT. Prior therapies included bortezomib (100%), lenalidomide (95%), pomalidomide (36%) and carfilzomib (19%).

multiple myeloma = experiment: Clinical trials pooled, monotherapy and combination treatments (N=2,066); format: in vivo, human
[4] = Immunogenicity, anti-daratumumab antibodies in clinical trials; format: in vivo, human
Source text: As with all therapeutic proteins, there is the potential for immunogenicity. The detection of antibody formation is highly dependent on the sensitivity and specificity of the assay. Additionally, the observed incidence of antibody (including neutralizing antibody) positivity in an assay may be influenced by several factors including assay methodology, sample handling, timing of sample collection, concomitant medications, and underlying disease. For these reasons, comparison of the incidence of antibodies to daratumumab in the studies described below with the incidence of antibodies in other studies or to other products may be misleading. […] One patient administered DARZALEX as combination therapy, developed transient neutralizing antibodies against daratumumab. However, this assay has limitations in detecting anti-daratumumab antibodies in the presence of high concentrations of daratumumab; therefore, the incidence of antibody development might not have been reliably determined.

[5] = Clinical pharmacokinetics of daratumumab; format: in vivo, human
Source text: Daratumumab volume of distribution was 4.7±1.3 L as monotherapy and 4.4±1.5 L as combination therapy following administration of the approved dosage.
Daratumumab clearance decreased with increasing dose and with multiple dosing.
The effect of severe (total bilirubin>3 times ULN and any AST) hepatic impairment on daratumumab pharmacokinetics is unknown.

CD38 on red blood cells = biological target: T1, CD38 on red blood cells (Homo sapiens, UniProt P28907); experiment: Interference with Indirect Antiglobulin Test (Indirect Coombs test)
T1 construct: endogenous in cells; host or cells: red blood cells (reagent RBCs used in serological testing)
Source text: Daratumumab binds to CD38 on red blood cells (RBCs) and results in a positive Indirect Antiglobulin Test (Indirect Coombs test). Daratumumab-mediated positive indirect antiglobulin test may persist for up to 6 months after the last daratumumab infusion. Daratumumab bound to RBCs masks detection of antibodies to minor antigens in the patient's serum [see References (15)]. The determination of a patient's ABO and Rh blood type are not impacted [see Drug Interactions (7.1)].
Daratumumab binds to CD38 on RBCs and interferes with compatibility testing, including antibody screening and cross matching. Daratumumab interference mitigation methods include treating reagent RBCs with dithiothreitol (DTT) to disrupt daratumumab binding [see References (15)] or genotyping. Since the Kell blood group system is also sensitive to DTT treatment, K-negative units should be supplied after ruling out or identifying alloantibodies using DTT-treated RBCs.

[6] = Storage of diluted DARZALEX solution; format: physicochemical
Source text: Prepare the solution for infusion using aseptic technique as follows: • Calculate the dose (mg), total volume (mL) of DARZALEX solution required and the number of DARZALEX vials needed based on patient actual body weight. • Check that the DARZALEX solution is colorless to pale yellow. […] Infusion bags/containers must be made of either polyvinylchloride (PVC), polypropylene (PP), polyethylene (PE) or polyolefin blend (PP+PE). Dilute under appropriate aseptic conditions. Discard any unused portion left in the vial. • Gently invert the bag/container to mix the solution. […] The diluted solution may develop very small, translucent to white proteinaceous particles, as daratumumab is a protein. […] (59° F.-77° F.) and in room light. Diluted solution may be kept at room temperature for a maximum of 15 hours (including infusion time). • If not used immediately, the diluted solution can be stored prior to administration for up to 24 hours at refrigerated conditions 2° C.-8° C. (36° F.-46° F.) and protected from light.

NK cells = experiment: Pharmacodynamics, NK cell counts; format: in vivo, human; conditions: peripheral whole blood and bone marrow
Source text: NK cells express CD38 and are susceptible to daratumumab mediated cell lysis.

[7] = Clinical pharmacokinetic drug-drug interaction assessments; conditions: human, in vivo
[8] = test system: multiple myeloma, prior PI and immunomodulatory agent; experiment: EQUULEUS (NCT01998971) open-label trial, DARZALEX with pomalidomide and dexamethasone
Method: In [sequence], patients receiving daratumumab combination treatment (n=97) were administered the first 16 mg/kg daratumumab dose at Week 1 split over two days i.e. 8 mg/kg on Day 1 and Day 2 respectively.
Pomalidomide (4 mg once daily orally on Days 1-21 of repeated 28-day [4-week] cycles) was given with low dose oral or intravenous dexamethasone 40 mg/week (reduced dose of 20 mg/week for patients>75 years or BMI<18.5).
The median patient age was 64 years (range: 35 to 86 years) with 8% of patients≥75 years of age. Patients in the study had received a median of 4 prior lines of therapy. Seventy-four percent (74%) of patients had received prior ASCT. Ninety-eight percent (98%) of patients received prior bortezomib treatment, and 33% of patients received prior carfilzomib. All patients received prior lenalidomide treatment, with 98% of patients previously treated with the combination of bortezomib and lenalidomide. Eighty nine percent (89%) of patients were refractory to lenalidomide and 71% refractory to bortezomib; 64% of patients were refractory to bortezomib and lenalidomide.

DARZALEX: IgG1κ human monoclonal antibody against CD38, HC SEQ ID NO: 9 and LC SEQ ID NO: 10
Serious adverse reactions ([1]; 16 mg/kg monotherapy): 33% | Arthralgia, Any Grade ([1]; human, in vivo): 17% | Arthralgia, Grade 3 ([1]; human, in vivo): 0% | Arthralgia, Grade 4 ([1]; human, in vivo): 0% | Back pain, Any Grade ([1]; human, in vivo): 23% | Back pain, Grade 3 ([1]; human, in vivo): 2% | Back pain, Grade 4 ([1]; human, in vivo): 0% | Chills, Any Grade ([1]; human, in vivo): 10% | Chills, Grade 3 ([1]; human, in vivo): 0% | Chills, Grade 4 ([1]; human, in vivo): 0% | Constipation, Any Grade ([1]; human, in vivo): 15% | Constipation, Grade 3 ([1]; human, in vivo): 0% | Constipation, Grade 4 ([1]; human, in vivo): 0% | Cough, Any Grade ([1]; human, in vivo): 21% | Cough, Grade 3 ([1]; human, in vivo): 0% | Cough, Grade 4 ([1]; human, in vivo): 0% | Decreased appetite, Any Grade ([1]; human, in vivo): 15% | Decreased appetite, Grade 3 ([1]; human, in vivo): 1% | Decreased appetite, Grade 4 ([1]; human, in vivo): 0% | Diarrhea, Any Grade ([1]; human, in vivo): 16% | Diarrhea, Grade 3 ([1]; human, in vivo): 1% | Diarrhea, Grade 4 ([1]; human, in vivo): 0% | Dyspnea, Any Grade ([1]; human, in vivo): 15% | Dyspnea, Grade 3 ([1]; human, in vivo): 1% | Dyspnea, Grade 4 ([1]; human, in vivo): 0% | Fatigue, Any Grade ([1]; human, in vivo): 39% | Fatigue, Grade 3 ([1]; human, in vivo): 2% | Fatigue, Grade 4 ([1]; human, in vivo): 0% | Headache, Any Grade ([1]; human, in vivo): 12% | Headache, Grade 3 ([1]; human, in vivo): 1% | Headache, Grade 4 ([1]; human, in vivo): 0% | Hypertension, Any Grade ([1]; human, in vivo): 10% | Hypertension, Grade 3 ([1]; human, in vivo): 5% | Hypertension, Grade 4 ([1]; human, in vivo): 0% | Infusion reaction, Any Grade ([1]; human, in vivo): 48% | Infusion reaction, Grade 3 ([1]; human, in vivo): 3% | Infusion reaction, Grade 4 ([1]; human, in vivo): 0% | Musculoskeletal chest pain, Any Grade ([1]; human, in vivo): 12% | Musculoskeletal chest pain, Grade 3 ([1]; human, in vivo): 1% | Musculoskeletal chest pain, Grade 4 ([1]; human, in vivo): 0% | Nasal congestion, Any Grade ([1]; human, in vivo): 17% | Nasal congestion, Grade 3 ([1]; human, in vivo): 0% | Nasal congestion, Grade 4 ([1]; human, in vivo): 0% | Nasopharyngitis, Any Grade ([1]; human, in vivo): 15% | Nasopharyngitis, Grade 3 ([1]; human, in vivo): 0% | Nasopharyngitis, Grade 4 ([1]; human, in vivo): 0% | Nausea, Any Grade ([1]; human, in vivo): 27% | Nausea, Grade 3 ([1]; human, in vivo): 0% | Nausea, Grade 4 ([1]; human, in vivo): 0% | Pain in extremity, Any Grade ([1]; human, in vivo): 15% | Pain in extremity, Grade 3 ([1]; human, in vivo): 1% | Pain in extremity, Grade 4 ([1]; human, in vivo): 0% | Pneumonia, Any Grade ([1]; human, in vivo): 11% | Pneumonia, Grade 3 ([1]; human, in vivo): 6% | Pneumonia, Grade 4 ([1]; human, in vivo): 0% | Pyrexia, Any Grade ([1]; human, in vivo): 21% | Pyrexia, Grade 3 ([1]; human, in vivo): 1% | Pyrexia, Grade 4 ([1]; human, in vivo): 0% | Serious adverse reaction, general physical health deterioration ([1]; human, in vivo): 3% | Serious adverse reaction, pneumonia ([1]; human, in vivo): 6% | Serious adverse reaction, pyrexia ([1]; human, in vivo): 3% | Upper respiratory tract infection, Any Grade ([1]; human, in vivo): 20% | Upper respiratory tract infection, Grade 3 ([1]; human, in vivo): 1% | Upper respiratory tract infection, Grade 4 ([1]; human, in vivo): 0% | Vomiting, Any Grade ([1]; human, in vivo): 14% | Vomiting, Grade 3 ([1]; human, in vivo): 0% | Vomiting, Grade 4 ([1]; human, in vivo): 0% | discontinuations due to adverse reactions ([1]; human, in vivo): 4% | treatment delay due to adverse reactions ([1]; human, in vivo): 15% | Anemia, Any Grade ([1]; lab abnormality): 45% | Anemia, Grade 3 ([1]; lab abnormality): 19% | Anemia, Grade 4 ([1]; lab abnormality): 0% | Lymphopenia, Any Grade ([1]; lab abnormality): 72% | Lymphopenia, Grade 3 ([1]; lab abnormality): 30% | Lymphopenia, Grade 4 ([1]; lab abnormality): 10% | Neutropenia, Any Grade ([1]; lab abnormality): 60% | Neutropenia, Grade 3 ([1]; lab abnormality): 17% | Neutropenia, Grade 4 ([1]; lab abnormality): 3% | Thrombocytopenia, Any Grade ([1]; lab abnormality): 48% | Thrombocytopenia, Grade 3 ([1]; lab abnormality): 10% | Thrombocytopenia, Grade 4 ([1]; lab abnormality): 8% | Overall response rate (ORR) ([2]; Independent Review Committee, IMWG criteria): 31 (29.2%) | Complete response (CR) ([2]; in vivo): 0 | Partial response (PR) ([2]; in vivo): 18 (17.0%) | Stringent complete response (sCR) ([2]; in vivo): 3 (2.8%) | Very good partial response (VGPR) ([2]; in vivo): 10 (9.4%) | median duration of response ([2]; in vivo): 7.4 months | median time to response ([2]; in vivo): 1 month | Overall response rate ([3]; 16 mg/kg, 42 patients): 36% | number of CR ([3]; 16 mg/kg, 42 patients): 1 | number of VGPR ([3]; 16 mg/kg, 42 patients): 3 | median duration of response ([3]; in vivo): not estimable | median time to response ([3]; in vivo): 1 month | Grade 3/4 infusion reaction at Week 2 or subsequent infusions (multiple myeloma; human, in vivo): Less than 1% | incidence of any grade infusion reactions, Week 2 infusion (multiple myeloma; human, in vivo): 2% | incidence of any grade infusion reactions, first (16 mg/kg, Week 1) infusion (multiple myeloma; human, in vivo): 37% | incidence of any grade infusion reactions, subsequent infusions (cumulative) (multiple myeloma; human, in vivo): 6% | time after completing infusion within which nearly all reactions occurred (multiple myeloma; human, in vivo): ≤ 4 h | patients who experienced an infusion reaction (multiple myeloma; in clinical trials): approximately half | time after infusion at which infusion reactions occurred (multiple myeloma; prior to the introduction of post-infusion medication): up to 48 hours | transient neutralizing antibodies against daratumumab ([4]; combination therapy): One patient | patients positive for anti-daratumumab antibodies ([4]; of the 1,050 evaluable combination therapy patients): 2 | mean serum Cmax at end of weekly dosing compared to first dose ([5]; approved recommended dosage, monotherapy or combination): 2.7 to 3 fold | Terminal half-life ([5]; combination therapy vs monotherapy): similar | trough serum concentration (Cmin) at end of weekly dosing, mean±SD ([5]; monotherapy): 573 ± 332 µg/mL | linear clearance, mean±SD ([5]; monotherapy, estimated): 171.4 ± 95.3 mL/day | terminal half-life associated with linear clearance, mean±SD ([5]; monotherapy, estimated): 18 ± 9 days | pharmacokinetics in specific populations ([5]; sex, age, mild and moderate hepatic impairment, renal impairment): No clinically significant differences | persistence of positive indirect antiglobulin test after the last infusion (CD38 on red blood cells): up to 6 months | time diluted solution can be stored refrigerated ([6]; 2-8 °C, protected from light): up to 24 hours | time diluted solution may be kept at room temperature ([6]; 15-25 °C, including infusion time): ≤ 15 h | absolute counts and percentages of total and activated NK cells (NK cells): Decreases | drug-drug interactions with lenalidomide, pomalidomide, bortezomib and dexamethasone [7]: no clinically relevant drug-drug interactions | incidence of any grade infusion-related reactions ([8]; combination treatment (n=97), first 16 mg/kg dose split over two days): 42% | infusion reactions on Day 2 of Week 1 ([8]; split first dose): 4% | infusion reactions with subsequent infusions ([8]; split first dose): 8%

— patent US20220204638A1, “Combination Therapies Comprising Daratumumab, Bortezomib, Thalidomide and Dexamethasone and Their Uses” (Janssen Biotech, Inc., priority 2019, published 2022)
